T1: KNL-1^1–505–6xHis, wild type (C. elegans, UniProt P34278 1-505)
T1 sequence: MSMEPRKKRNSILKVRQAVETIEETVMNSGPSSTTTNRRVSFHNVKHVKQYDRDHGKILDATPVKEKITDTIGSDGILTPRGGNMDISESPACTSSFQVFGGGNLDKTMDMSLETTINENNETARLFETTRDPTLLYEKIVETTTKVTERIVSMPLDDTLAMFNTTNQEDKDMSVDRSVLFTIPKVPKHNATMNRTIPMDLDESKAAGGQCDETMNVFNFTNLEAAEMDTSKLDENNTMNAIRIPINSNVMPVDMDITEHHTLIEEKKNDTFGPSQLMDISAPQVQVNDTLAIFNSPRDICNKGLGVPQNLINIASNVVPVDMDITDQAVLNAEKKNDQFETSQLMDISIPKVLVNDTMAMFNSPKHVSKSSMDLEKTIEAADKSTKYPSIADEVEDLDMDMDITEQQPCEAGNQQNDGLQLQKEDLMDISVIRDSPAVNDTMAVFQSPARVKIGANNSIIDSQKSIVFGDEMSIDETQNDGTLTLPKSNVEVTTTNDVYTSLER

B1: KNL-1^1–505–6xHis Δ9 (domain or fragment)
chain: NSILKVRQAVETIEETVMNSGPSSTTTNRRVSFHNVKHVKQYDRDHGKILDATPVKEKITDTIGSDGILTPRGGNMDISESPACTSSFQVFGGGNLDKTMDMSLETTINENNETARLFETTRDPTLLYEKIVETTTKVTERIVSMPLDDTLAMFNTTNQEDKDMSVDRSVLFTIPKVPKHNATMNRTIPMDLDESKAAGGQCDETMNVFNFTNLEAAEMDTSKLDENNTMNAIRIPINSNVMPVDMDITEHHTLIEEKKNDTFGPSQLMDISAPQVQVNDTLAIFNSPRDICNKGLGVPQNLINIASNVVPVDMDITDQAVLNAEKKNDQFETSQLMDISIPKVLVNDTMAMFNSPKHVSKSSMDLEKTIEAADKSTKYPSIADEVEDLDMDMDITEQQPCEAGNQQNDGLQLQKEDLMDISVIRDSPAVNDTMAVFQSPARVKIGANNSIIDSQKSIVFGDEMSIDETQNDGTLTLPKSNVEVTTTNDVYTSLER

How the values were obtained:
[1] = biological target: the molecule itself; experiment: SEC
[2] = biological target: B1; experiment: pull-down
[3] = biological target: T1, KNL-1^1–505–6xHis, wild type; experiment: pull-down

Row | Binder | binding result [1] | binding result [2] | binding result [3]
1 | B1 | binds |  | 
2 | GST–GSP-2 (enzyme) MDVEKLNLDNIISRLLEVRGSKPGKNVQLTESEIKGLCQKSREIFLSQPILLELEAPLKICGDVHGQYYDLLRLFEYGGFPPESNYLFLGDYVDRGKQSLETICLLLAYKIKYPENFFLLRGNHECASINRIYGFYDECKRRYNIKLWKTFTDCFNCLPVAAIIDEKIFCCHGGLSPDLQSMEQIRRIMRPTDVPDQGLLCDLLWSDPDKDVTGWGENDRGVSFTFGPEVVAKFLHKHDLDLICRAHQVVEDGYEFFAKRQLVTLFSAPNYCGEFDNAGSMMTVDETLMCSFQILKPADKKKYPYGAGGVGSNRPVTPPRNAPAAQPKKGAKK |  | binds | binds

Source: paper PMC3284002 (The Journal of Cell Biology, 2012)
